Measurements taken from patent US20260234738A1.

Target: SARS-CoV-2 spike protein variant Y483A on VSV pseudoparticles (SARS-CoV-2) (UniProt P0DTC2)
Experiment: cell-based or functional assay

mAb10987 (antibody) gave a Relative neutralization at 5 µg/ml of 99%.
